Measured values from patent US20110008312A1.

Biological target: fibrillin-1 (human) (UniProt P35555)
Experiment: cell-based or functional assay

UniProt P35555, sequence (P35555 45-2731 limits assumed): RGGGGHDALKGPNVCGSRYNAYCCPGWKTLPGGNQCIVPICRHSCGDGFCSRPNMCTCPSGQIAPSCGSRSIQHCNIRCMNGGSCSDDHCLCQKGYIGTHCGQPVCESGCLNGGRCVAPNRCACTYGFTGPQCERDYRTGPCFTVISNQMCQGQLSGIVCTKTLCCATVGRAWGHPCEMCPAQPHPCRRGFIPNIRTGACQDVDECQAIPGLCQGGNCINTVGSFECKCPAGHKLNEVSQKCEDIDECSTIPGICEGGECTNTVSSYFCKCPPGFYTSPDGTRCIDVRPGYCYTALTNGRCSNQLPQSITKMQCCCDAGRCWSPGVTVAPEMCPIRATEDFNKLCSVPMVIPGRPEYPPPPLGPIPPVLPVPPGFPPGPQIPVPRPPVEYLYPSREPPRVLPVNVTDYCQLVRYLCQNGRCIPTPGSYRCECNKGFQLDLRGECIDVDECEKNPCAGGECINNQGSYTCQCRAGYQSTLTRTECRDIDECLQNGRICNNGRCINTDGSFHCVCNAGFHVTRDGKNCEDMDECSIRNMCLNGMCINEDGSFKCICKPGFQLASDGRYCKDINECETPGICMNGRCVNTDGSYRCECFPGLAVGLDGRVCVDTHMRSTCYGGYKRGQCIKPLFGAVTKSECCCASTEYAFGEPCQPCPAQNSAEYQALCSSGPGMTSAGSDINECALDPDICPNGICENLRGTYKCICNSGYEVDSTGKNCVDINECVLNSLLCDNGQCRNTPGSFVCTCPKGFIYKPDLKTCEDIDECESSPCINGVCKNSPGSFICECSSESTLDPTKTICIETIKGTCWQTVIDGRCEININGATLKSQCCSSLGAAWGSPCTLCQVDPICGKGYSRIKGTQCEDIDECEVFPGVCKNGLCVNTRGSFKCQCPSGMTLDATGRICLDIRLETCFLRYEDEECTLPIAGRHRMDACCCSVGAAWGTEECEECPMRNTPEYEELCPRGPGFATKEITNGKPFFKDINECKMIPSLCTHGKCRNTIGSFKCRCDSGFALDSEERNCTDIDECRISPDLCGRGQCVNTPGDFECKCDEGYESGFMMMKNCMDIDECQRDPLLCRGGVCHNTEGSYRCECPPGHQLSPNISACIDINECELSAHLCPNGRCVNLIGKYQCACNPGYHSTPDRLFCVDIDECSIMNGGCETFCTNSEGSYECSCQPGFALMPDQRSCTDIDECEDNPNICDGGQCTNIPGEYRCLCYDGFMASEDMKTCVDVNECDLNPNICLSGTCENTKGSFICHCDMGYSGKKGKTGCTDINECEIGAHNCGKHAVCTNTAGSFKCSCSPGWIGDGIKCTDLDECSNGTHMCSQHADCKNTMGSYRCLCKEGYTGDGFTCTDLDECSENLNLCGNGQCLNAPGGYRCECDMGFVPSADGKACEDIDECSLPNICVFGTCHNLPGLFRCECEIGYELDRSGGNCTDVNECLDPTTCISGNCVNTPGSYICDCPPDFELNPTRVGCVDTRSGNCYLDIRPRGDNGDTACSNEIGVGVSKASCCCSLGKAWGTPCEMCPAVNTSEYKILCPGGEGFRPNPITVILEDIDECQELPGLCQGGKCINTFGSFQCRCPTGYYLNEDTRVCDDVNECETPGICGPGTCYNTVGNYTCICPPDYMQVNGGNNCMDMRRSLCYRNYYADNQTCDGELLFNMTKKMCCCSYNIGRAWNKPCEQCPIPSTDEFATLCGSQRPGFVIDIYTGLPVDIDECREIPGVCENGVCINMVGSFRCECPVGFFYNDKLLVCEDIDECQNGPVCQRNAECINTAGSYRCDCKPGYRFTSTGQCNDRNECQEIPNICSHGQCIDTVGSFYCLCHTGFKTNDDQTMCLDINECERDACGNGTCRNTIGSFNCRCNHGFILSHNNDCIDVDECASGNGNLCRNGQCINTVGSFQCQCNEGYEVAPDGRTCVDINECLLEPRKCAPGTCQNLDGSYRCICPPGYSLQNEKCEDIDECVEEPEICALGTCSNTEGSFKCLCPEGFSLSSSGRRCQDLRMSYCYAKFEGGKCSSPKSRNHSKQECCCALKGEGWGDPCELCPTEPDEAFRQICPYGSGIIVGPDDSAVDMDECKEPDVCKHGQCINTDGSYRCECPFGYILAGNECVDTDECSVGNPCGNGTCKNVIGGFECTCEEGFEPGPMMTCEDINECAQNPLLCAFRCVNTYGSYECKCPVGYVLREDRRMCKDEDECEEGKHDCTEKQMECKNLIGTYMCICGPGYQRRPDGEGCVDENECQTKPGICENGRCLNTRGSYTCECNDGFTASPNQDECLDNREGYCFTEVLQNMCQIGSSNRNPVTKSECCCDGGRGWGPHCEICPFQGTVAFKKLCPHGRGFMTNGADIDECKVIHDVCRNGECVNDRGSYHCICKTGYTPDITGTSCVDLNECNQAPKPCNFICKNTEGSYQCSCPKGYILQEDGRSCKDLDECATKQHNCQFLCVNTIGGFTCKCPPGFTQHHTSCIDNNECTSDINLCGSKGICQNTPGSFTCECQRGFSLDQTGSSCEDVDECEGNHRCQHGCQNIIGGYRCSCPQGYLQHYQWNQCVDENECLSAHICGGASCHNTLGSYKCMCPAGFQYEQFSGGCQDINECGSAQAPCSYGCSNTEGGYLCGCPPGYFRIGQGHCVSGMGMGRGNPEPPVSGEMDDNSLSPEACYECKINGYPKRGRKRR
elastin, sequence (P15502 27-786 limits assumed): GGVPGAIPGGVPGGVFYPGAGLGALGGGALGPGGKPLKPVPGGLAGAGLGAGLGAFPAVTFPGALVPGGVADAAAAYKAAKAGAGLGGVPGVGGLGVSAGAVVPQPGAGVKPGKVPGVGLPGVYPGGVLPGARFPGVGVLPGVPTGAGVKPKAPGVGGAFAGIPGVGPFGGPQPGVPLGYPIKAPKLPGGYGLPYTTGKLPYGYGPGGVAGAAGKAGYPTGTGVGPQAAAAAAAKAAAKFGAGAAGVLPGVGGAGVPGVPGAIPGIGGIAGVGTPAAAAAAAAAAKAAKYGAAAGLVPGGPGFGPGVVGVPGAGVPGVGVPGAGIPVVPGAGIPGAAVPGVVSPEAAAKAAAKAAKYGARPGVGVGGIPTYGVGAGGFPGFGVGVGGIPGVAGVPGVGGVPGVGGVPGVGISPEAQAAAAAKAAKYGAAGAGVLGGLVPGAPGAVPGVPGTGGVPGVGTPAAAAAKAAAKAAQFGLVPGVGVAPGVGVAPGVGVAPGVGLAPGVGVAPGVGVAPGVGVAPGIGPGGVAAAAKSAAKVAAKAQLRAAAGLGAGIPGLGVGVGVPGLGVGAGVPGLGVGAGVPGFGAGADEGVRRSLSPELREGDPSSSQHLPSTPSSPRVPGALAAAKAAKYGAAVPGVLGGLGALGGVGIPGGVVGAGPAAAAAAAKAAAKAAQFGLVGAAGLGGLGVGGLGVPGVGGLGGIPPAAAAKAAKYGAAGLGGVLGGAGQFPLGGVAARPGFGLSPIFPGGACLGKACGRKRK

amount of elastin deposition to the extracellular matrix (% vs CS-free), keloid cells, CS-A added: 87% | amount of elastin deposition to the extracellular matrix (% vs CS-free), keloid cells, CS-A and CS-B added: 66.3% | amount of elastin deposition to the extracellular matrix (% vs CS-free), keloid cells, CS-A and CS-C added: 67.4% | amount of elastin deposition to the extracellular matrix (% vs CS-free), keloid cells, CS-A, CS-B and CS-C added: 37.6% | amount of elastin deposition to the extracellular matrix (% vs CS-free), keloid cells, CS-B added: 95.9% | amount of elastin deposition to the extracellular matrix (% vs CS-free), keloid cells, CS-B and CS-C added: 91% | amount of elastin deposition to the extracellular matrix (% vs CS-free), keloid cells, CS-C added: 86.7% | amount of elastin deposition to the extracellular matrix (% vs CS-free), keloid cells, CS-free: 100%
Substance: elastin (from UniProt P15502 27-786)
